Experiment [1] concerns the target T1, human insulin (Sigma) (human, UniProt P01308 25-54; P01308 90-110).
T1 construct: Bought reagent
In words: far-Western: COS-1 cell lysate on PVDF membrane, probed with human insulin, detected with anti-human insulin polyclonal antibody. How it is done:
(§1) To investigate the binding affinity of the proteins encoded by C-hsi13412 and C-kaia397 to IGF, analysis by far-Western (Molecular Cloning—A Laboratory Manual, Third Edition, Cold Spring Harbor Laboratory; Protein Experiment Protocol 1, Shujunsha) was carried out using the cell lysates of COS-1/C-hsi13412 cell line, COS-1/C-kaia397, and, as a control, COS-1/mock cell line obtained in Example 8.
(§2) A 5 μl aliquot of the cell lysates of COS-1/mock cell line, COS-1/C-hsi13412 cell line, and COS-1/C-kaia397 cell line was placed into each lane, and according to Example 14, SDS-PAGE was carried out, transferred to a PVDF membrane, and then blocked. Subsequently, 2 μg/ml human IGF-I (Peprotech), 2 μg/ml human IGF-II (Peprotech), or 2 μg/ml of human insulin (Sigma) diluted with the blocking solution was enclosed with the membrane, and was allowed to react at room temperature overnight. Next, anti-human IGF-I monoclonal antibody (Upstate Biotechnology), anti-human IGF-II monoclonal antibody (Upstate Biotechnology), or anti-human insulin polyclonal antibody (Santa Cruz) were added to each of the membranes to a concentration of 2 μg/ml, and was left standing at room temperature for 1 hour. After the membrane was washed well with Tween-TBS, detection was carried out using peroxiase-labeled rabbit anti-mouse immunoglobulin (DAKO) diluted 2,000 times as the secondary antibody.

In experiment [2] the target is T2, human IGF-I (Peprotech) (human, UniProt P05019 49-118).
T2 construct: Bought reagent; also called IGF-1
T2 sequence (P05019 49-118 limits assumed): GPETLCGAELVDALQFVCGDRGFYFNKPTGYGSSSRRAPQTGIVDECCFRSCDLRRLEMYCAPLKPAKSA
In words: far-Western: COS-1 cell lysate on PVDF membrane, probed with 2 µg/ml human IGF-I, detected with anti-human IGF-I monoclonal antibody. How it is done:
as §1, §2

The target of experiment [3] is T3, human IGF-II (Peprotech) (human, UniProt P01344 25-91).
T3 construct: Bought reagent; also called IGF-2
T3 sequence (P01344 25-91 limits assumed): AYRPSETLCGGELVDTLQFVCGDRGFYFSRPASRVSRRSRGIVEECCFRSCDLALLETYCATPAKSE
In words: far-Western: COS-1 cell lysate on PVDF membrane, probed with 2 µg/ml human IGF-II, detected with anti-human IGF-II monoclonal antibody. How it is done:
as §1, §2

T1 sequence (P01308 25-54 limits assumed, chain 1 of 2): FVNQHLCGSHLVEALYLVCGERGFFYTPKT
T1 sequence (P01308 90-110 limits assumed, chain 2 of 2): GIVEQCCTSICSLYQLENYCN

B1: protein encoded by C-kaia397 with FLAG marker peptide at the C-terminus, expressed in COS-1 cells (COS-1/C-kaia397 cell line) (other, not shown: small tags and cut ends)
chain: RPSPGPDYLRRGWMRLLAEGEGCAPCRPEECAAPRGCLAGRVRDAGGCCWECANLEGQLCDLDPSAHFYGHCGEQLECRLDTGGDLSRGEVPEPLCACRSQSPLCGSDGHTYSQICRLQEAARARPDANLTVAHPGPCESDWMPLLGHAILRPPAFTPRAPDRVTSI
notes: Tested as COS-1 cell lysate or culture supernatant, not purified
On to B1, for which the values for the binding result in experiment [1], in experiment [2] and in experiment [3] were “no binding (tested: 2 µg/ml)”, “binds” and “binds”, respectively.

(Values after patent publication US20040072238A1 (Kyowa Kirin, published 2004).)
